Reference: the Human Domainome abundance scans (Beltran et al. 2025)

B1: Protein S100-G, residues 1 to 79; numbered along this chain, P02633 (parent)
chain: MSAKKSPEELKGIFEKYAAKEGDPNQLSKEELKLLLQTEFPSLLKGPSTLDELFEELDKNGDGEVSFEEFQVLVKKISQ

Variants of: B1
Test: abundance fitness (aPCA) (normalised: wild type 0, dead -1); higher = more abundant; growth selection in yeast, the domain comes from the species named
Details: Bos taurus

Abundance fitness, by site and new letter:
L44: N 0.058 | P 0.08 | Q -0.037 | R -0.024 | S -0.047 | T 0.035 | V 0.02 | W 0.115 | Y 0.033
K45: A -0.442 | C -0.066 | D 0.07 | E 0.005 | H 0.003 | L -0.018 | M 0.002 | N -0.022 | P 0.003 | Q 0.042 | R 0.002 | T -0.005 | V -0.029 | W -0.012 | Y -0.062
G46: A 0.042 | C -0.023 | D 0.028 | E -0.025 | F -0.005 | H 0.039 | I 0 | K -0.001 | L 0.02 | M 0.053 | N 0.037 | P -0.041 | Q -0.008 | R -0.008 | S -0.017 | T 0.007 | W -0.087 | Y 0.011
P47: A 0.094 | C 0.04 | D -0.02 | F -0.015 | G -0.023 | K -0.09 | L -0.027 | M -0.004 | Q 0.051 | R -0.05 | S 0.073 | T 0.085 | V 0.082 | W -0.01 | Y 0.042
S48: A 0 | C -0.156 | D -0.138 | E 0.042 | F -0.062 | G -0.042 | H -0.023 | I 0.005 | K 0.055 | L -0.01 | M -0.056 | P 0.015 | Q 0.086 | R 0.038 | T -0.029 | V -0.032 | W -0.048 | Y 0.016
T49: A 0.007 | C -0.12 | D -0.08 | E -0.026 | F 0.032 | G -0.043 | H 0.047 | I -0.021 | K -0.103 | M -0.081 | N -0.109 | P -0.051 | Q 0.04 | R -0.057 | S 0.018 | W -0.076 | Y 0
L50: A -0.044 | C 0.042 | D -0.068 | E 0.007 | F -0.026 | G -0.078 | I 0.009 | K -0.001 | M -0.01 | N -0.094 | P -0.059 | Q -0.028 | R -0.044 | S -0.034 | T -0.013 | V 0.082 | Y 0.024
D51: A -0.032 | C 0.011 | E -0.07 | F -0.121 | G -0.044 | I -0.08 | K -0.043 | L -0.072 | M 0.005 | N 0.032 | P 0.032 | Q -0.091 | R -0.07 | S -0.032 | V -0.032 | W -0.142 | Y -0.145
E52: A -0.005 | C -0.122 | D -0.056 | F -0.068 | G 0.026 | H 0.04 | I -0.042 | K 0.022 | L -0.001 | M -0.031 | N -0.002 | P -0.037 | Q -0.023 | R -0.046 | S -0.009 | T 0.064 | V -0.024 | W -0.084 | Y -0.108
L53: A 0.055 | C -0.048 | D 0.053 | E 0.031 | F 0.077 | G -0.065 | H 0.026 | I 0.041 | K -0.033 | M 0.015 | N 0.109 | P 0.033 | Q 0.028 | R -0.031 | T 0.036 | V 0.028 | W 0.013 | Y -0.036
F54: A -0.007 | C -0.004 | D 0.035 | E -0.033 | G -0.038 | H -0.054 | I 0.051 | K -0.048 | L 0.04 | M 0.007 | N 0.039 | P -0.073 | Q 0.004 | R -0.093 | S 0.023 | T 0.03 | V -0.015 | W 0.04 | Y 0.064
E55: A -0.045 | C -0.014 | D 0.033 | F 0.055 | G 0.02 | H 0.005 | I -0.035 | K -0.047 | L 0.04 | M 0.004 | P 0.012 | Q 0.031 | R 0.001 | S -0.024 | T 0.005 | V -0.012 | W 0.011 | Y 0.058
E56: A -0.042 | C 0.065 | G -0.006 | H -0.005 | I -0.208 | K -0.071 | L -0.082 | M -0.045 | P 0.094 | Q -0.053 | R -0.02 | S 0.002 | T 0.001 | W -0.076 | Y -0.06
L57: A 0.079 | C 0.024 | D 0.081 | E -0.044 | F -0.014 | G -0.117 | H -0.031 | I 0.156 | K -0.071 | M 0.054 | N -0.042 | P -0.012 | Q 0.021 | R -0.015 | S 0.013 | W 0.032 | Y 0.03
D58: A -0.107 | C -0.022 | E -0.109 | F 0.054 | G 0.007 | H -0.096 | I 0.027 | K -0.008 | L 0.054 | M -0.026 | N -0.053 | P -0.078 | Q 0.068 | R -0.072 | S 0.025 | T 0.021 | V -0.058 | W -0.027 | Y -0.008
K59: A 0.055 | C 0.021 | D -0.022 | E -0.005 | F 0.098 | G 0.093 | H 0.013 | I -0.105 | L 0.052 | M 0.085 | N 0.009 | Q -0.009 | R -0.003 | S 0.009 | T 0.007 | V 0.087 | W 0.065 | Y -0.079
N60: A 0.101 | C -0.102 | D 0.058 | E 0.108 | F -0.156 | G 0.027 | H -0.05 | I 0 | K -0.105 | L -0.034 | M -0.164 | P 0.004 | Q -0.043 | R 0.014 | S 0.04 | T -0.042 | W -0.091
G61: C 0.026 | E 0.067 | F -0.006 | H -0.163 | I -0.019 | K -0.05 | L -0.063 | M -0.026 | N -0.072 | P 0.007 | Q -0.021 | R -0.042 | S 0.019 | T 0.006 | V -0.021 | W -0.024 | Y -0.065
D62: A -0.009 | E 0.058 | F -0.138 | G -0.032 | H -0.045 | I -0.097 | K 0.004 | L -0.042 | P -0.027 | R -0.003 | S 0.043 | T -0.044 | V -0.027 | W -0.168 | Y -0.193
G63: A -0.009 | C -0.04 | D -0.005 | E 0.118 | F -0.124 | H 0.093 | K -0.017 | L -0.13 | M -0.019 | N -0.082 | P -0.036 | R -0.029 | S -0.06 | V -0.079 | Y 0.002
E64: A 0.01
